Test results: the DeepSol protein solubility set

Test: soluble on expression in E. coli; label from the status in PepcDB or PDB records

Soluble on expression in E. coli, not soluble:
MGSDKIHHHHHHMKRFTLWNSYVAITESKEFVDWNKTKIIGSFKCPAFSYRSSTQIKADPFLFEYNNAIYLFYEEKYKNGKGYIVCTWTSDLKNWSQPVVVLKEPFHLSFPYVFKINDKIYMLPESNESNELRLYECVDFPYKWKLNKIIFDNGKYVDSSIICKGDIYYLFTTHKTENSFYHELYYCNDLLSDKWIKHPQSPISNNPKFARNGGSVFSHNNNLFRPAQDCSVSYGNNLSIFNVTHLSIDKYEETLVATNFFPKYKFKHGGHHFSHIEYKGQNIIAFDKKSREYAITPLFSSLYALICRLMKITSHK
MGSDKIHHHHHHMKRKRIDGMNIEIITATIDMLEEIVAIQTAAFSEREPMTMSLNFTKEEMYDYFLKIIPESINSGLTMAAVDEDKGAIAAVVICFDAFAVFPNMEWTQKEIDGISKTNIFFEELEKPLNTNPAFKPEKCVRLMYVSTDENYLRRGIARKLGESMINRAIDLGYELMIADATNINSAGMFEKLGFWQEKVLPYKLVEKDGLKAFGNVEGECILYSRYLQENCFS
MGSDKIHHHHHHMKRLITQALDGEAGCILSDCEQYRYRLWREWDRSAPGLGFIMLNPSSADHQVNDPTITRCLQRALAGKYGRLEVVNLFPLRSTDPDGLLTHPAPLGDRPDRNECAIMDALDRCSLVICAWGAHKAAPARAAEVLRIVRMCGRGNLLYHLGLNKDGSPKHPLYIAKTKRPEPFTSIPVTQVNREYAPHR
MGSDKIHHHHHHMKRTVTVKLQPSKAQEETLKELAIISSKAWNKVNYLRRQEFFEGKPVDFLKTEKIVYEEFKSEIGSATVQQICRKNADAWRSFFSLIRSKRNGELPKWFKPKPPEYVKEGGLIILRNDQYKIEGNKLILKGLGKFKRLEVQFKGRIHLKGKQGKLEITYDPIKRKWYAHISYTVKEKLYGGEWVEVPRQPLGNLSAGIDLGVNNLMAVYVENGESFLVNGRPLKSIDFYWRERIADYQSKLNKSGAKKSRKLSRMHEKAKLQAKHYINTAVRQTVERLYHLGVSRIVVGYPKGISRNSNRGKKQNYLLSHVWRFNYVIKRLREVAEEYGIQVLIVDEAFTSKLCPVCGKPHKGQGLFEDYLSVPRRGLPLMPTWLELSTF
MGSDKIHHHHHHMKSQWECFLQNLGVWEGSFSNFSPEGTLLNDTSSRLCLEGLNNNQTVRLTLSRSGKDDVIREFRSVGGGLLFFENGSFSEGLIQLGPFSEFGGELAFVHENRRLRLVQLFDRNGHLNGLTLIREHLAGTPVAERPLLQINDLLGEWRGQAVTIYRDLRPPDIYSTTLKIQLDDAGRLMQSTSFGERTITSTATIKGSIVLFDQDPEKQVQVLLLPDGASATSPLKVQLRQPLFLEAGWLIQSDLRQRMIRSYNDKGEWVSLTLVTEERV
MGSDKIHHHHHHMKSRFYRPLSLASVSPSYFPEIALYVRNSGNYILYKNHDRQFTEEDRHRLERTNTSFLYVRSGDMDAVTEYLEQNLDTLLARDDIDSNAKGTILYQTAANYVTDVFDEPGKTADIIRCRSLIRHLMKYVAGHEDALKALQAITSQNYYIFTHSVQVAALMMLVHDRLFRLNQDEMIDVGIGSLLHDVGMVFLSGQLLDKPDALAAIEYHKAKQHAQKGYEHLQSAGTLSEVSLTIVRHHHEKYDGSGYPAGLKGDDIPRSAQLAALCDTYCAMTTDRPKHTALPGAEALRIMEDEVGGAFSPDLFYRFADVVKGKGKA
MGSDKIHHHHHHMKSWPRPCSWACANPETKGRAYRTMSSSPTISPASDTFAAMTDDHRLAEFIREQASATRVVIQARKRLSGGAIQENWLLDLLIEGGPWAGVRRWVLRSDALSALPASLDREQEFAVLQVVYQAGVKVPRPLWLCRDVRVHGRVFFLMEYVPGSAAGRALSTGAGPQGRAQLATQLGANLARLHQVRPPCATLCFLSVPDSSPALATIDAYRRYLDTLADAYPVLEWGLRWCELHAPRSSTLCLLHRDYRTGNYLASEEGLEAVLDWEFTGWGDPCEDLGWFTARCWRFTRPDLEAGGIGQLEDFLRGYHEVSSLCIERSRLHYWQVMATLRWAVIALQQGQRHLSGEEPSLELALTARLLPELELDILHMTGAEAP
MGSDKIHHHHHHMKTEITLLKGETVMVEPKEFLKAGQAFHGHKCPAMPMGLRVGAAAMNKLGVERSKDGQLLDLVELGDGHCATCFADGIQMITGCTFGKGNIKKLHYGKWGVTLIDTQTGRAVRVTPKAEAMLANKKSEFFTEYRMKHIPASKVPAEVVEPLVEKVMNAPDDMLLNIGDVFDYEVPPKVESFSGFVCDICGEMVVEGYGRPLDDKKVCQPCYEKAQREH
MGSDKIHHHHHHMKTKETPEQKPEDMPIPIVDITSVEQQTVSLNLPSYGVVTPKYKTQLVTEVQGRMLTISPQFVAGGIVKKGDQLAQIEPSDYEADLMQAEATLAQATAALNEEIARGEVAKIEFKGYDKGLPPELGLRIPQLKKEQANVKYAQAALARAQRNLERTIIRAPFDGIIKARNVDLGQYVTLGTNLGELYDTSIAEIRLPISNDDLAYLESVDNPDTQVTLSASLAGKENTWIGNIIRSEGVIDADNRMVYLVAEIKDPYLREHKTQGSLPLKYGSFVNAVIKGRTVDGIVKLPRHVVRNEHVALINDNNIVEMRHVNVVRSDLQNVFIKDSLKTGERVAITHFNNMANGQLVKVIGEETKPAQTPAPESSLAATGVK
MGSDKIHHHHHHMKVDLCARKQADAQASVGIIQREGGTARAYQCDIANPDSVRDFSVQLLEDSTPVDILVLSAAQWLEGALGEEDTDTDIVSTINSGLTGSILLTKTLLPSLRRSQSADILAMISVCGVPQFHDSIAHPAFFAAKHGLSGFSQNLAHHVAQENIRVTGFYPPDFEVTGFDDYPASGEKMGEHLLNARSIWETMRFVLTQPRSCHINAIHFQGPTRTDIGPY
MGSDKIHHHHHHMKVHVLASGSTGNAVLFQFGESKILVDAGISCRRIENGLQAIGTRAGELDAVLLTHEHTDHIKGLDVFIRKYQLPVFARPATWSKIDCRKKFPGECIKELEGTFSLGKVLIEPFAISHDAIDPVGFCFYYGKRKAVIATDLGMVSREVEKALSFSDIAVLESNHDPQMLKNGPYPPYLKKRIEGREGHLSNFDTARLLSTVPRHNPMQVLLAHISQQNNHPMLAQQTVSKIMQDSGCEVGREIGIYPTFPHHGITCTMTRVFAVNAPLFQWADLLAKQDGRGKAN
MGSDKIHHHHHHMKVLDVIKQIQQAIVYIEDRLLEPFNLQELSDYVGLSPYHLDQSFKMIVGQSPEEYARARKMTIAANDVVNGASRLMDVAKKYRYANSNDFANDFSDFHGISPIQATTKKDELKIQQRLYIKLSTTENAPYTYRLQETDDISLVGYSRFIPTEQLSNPFNIPDFLEDLLVDGYIKELKRYNDTSPYELFVVSCPLEQGLEIFVGVPSERYPSHLESRFLPGRHYALFNLQGEIDYATNEAWYYIESSLQLTLPYERNSLYVEIYPLDISFNDPFTKIQLWLPIKQEIYDLDEGYQN
MGSDKIHHHHHHMKVTFLGHAVVLIEGKKNIIIDPFISGNPVCPVKLEGLPKIDYILVTHGHGDHLGDAVEIAKKNDATVISNYEICHYLGKKGVKTHAMHIGGSYLFDFGRVKMTPAVHGSGILDGDSMIYGGNPSGFLITIEGKKIYHAGDTGLTREMELLAEENVDVAFLPIGGNFVMDVEDAVRAAVMIKPKKVVPMHYGTWELIFADVELFKKKVEEKGVECVILEPGESLEL
MGSDKIHHHHHHMKYREILEAAVRAPSGENCQPWRFVMEGDVIRIFNIPDQDTSLFNLHQRASYVAHGALLENLSIAAPAFGYAPDISLFPDSHVPNLVAAVRMTEGPSFDDSLYPYIPKRCTNRKRYNGGALSAAESQTLLSVAERVPGGKVALTGSVQDKAEVAEVNALNDRLVFENEHLHAFLFEHVRWSDAEARERGDGLDIKTLELAPPDSLAFPLLKSWPLVDFLKNFGVPRIIAGSARKLALSAAAIGVVSVPGKGDKDCIAAGRLIERVWLEATKLGLSFQLMTGITLLMRRVLDGETENISSQHGELIKKAYGTLANRFGVEDGSLFIMFRVGRCGPPSVYSMRYPIDKVIDAP
MGSDKIHHHHHHMLARGKTNLKIEEIRMHKHHEIHRVKPLMPALCRIRQGKKVINWETHTLTVDNNQIILFPCGYEFYIENYPEAGLYLAEMLYLPIDLIESFQKLYTVTDQIRNKTSFFLPQNPELIYCWEQLKTSVSRGFSTKIQEHLAMGVLLSLGVNHVNHLLLSYSKQSLISRCYNLLLSEPGTKWTANKVARYLYISVSTLHRRLASEGVSFQSILDDVRLNNALSAIQTTVKPISEIARENGYKCPSRFTERFHNRFNITPREIRKASRE
MGSDKIHHHHHHMLASDLLVIDFAQKDDVLKLYPEAPLLSSDKAQWDGIQLQYHRHPPHQLSENHSKQHRIIIHDRSPSPPMVEEMIEHRFQKRQFGYGDVTVVPADVLNSAYWNTEYEFITLSFEARTFARHTFDLTTATDIELVPSFSKPDQLIYSLGFALKSELESSGVGSRLYIDSLTAALMTHLLRHYSAQRSISRPQSGLAKCQLQKVIDFINQNLEQDLALAELAAIVQMSPSYFSTLFKHSTGLAPHQYVIQCRVDRAKQLLRQSNLTIAEIAYSLGFTHQSHLSRHFKRLVGVSPKVFIKSQ
MGSDKIHHHHHHMLDENEDIHPLFAGAPATTEFKKLRKRIVRYTREAIEQYGMVERRADGSTPKWLVCLSGGKDSYTLLAVLYELKWRGLLPVDLLACNLDQGQPGFPSTVLPEFLDRMGVPNRIEYQDTYSVVVDKVPQGRTYCALCSRLRRGNLYRIAREEGCSAVVLGHHRDDILETFFMNLFHGGRLATMPPKLVNEEGDLFVFRPLAHVAEADCEKFARAMNYPIIPCDLCGSQDGLQRQQVKQILDGWEKNRPGRRQVMFRALMNARPSHLLDPKLFDFQGLELGSREKGENFGEIPLLR
MGSDKIHHHHHHMLDPRSVPFAAQIHPQARPARRLTWDSREAGPDTAFVALPGEKMHGNRFVERALAAGAPFVLTDLDVPRAVRVDDARGALFAWARSERAKNPLVVGITGSAGKTTAKSYAAAALDAHFMPVFNTMPAIACFLVQYGASQKPLVVEMGIDHIGEMAELMDLVRPDVGVVTTIGPAHLEQFGMVETIAHEKGQILTARRALVGSQAAAFFPKAQFPHVDSYGFGDVTFRGEGLELSPQAARFRFGGMGVILPLASRVQAEAAVLGMVLAREAGIALADAAVRMSAVEVPGGRYRLHPGRFTVIDDAYNASPVAVRAALDALHALKPEGEVGRRISVLGRMLELGPTERELHAEVGSYAREQADLTYGVGEFAQELGERAFATVPELLADLLNEVRDGDIVLVKASRGISLTPEQRAVTGVGLDVVVEALLDQRDR
MGSDKIHHHHHHMLEQFHIHADLKQQLSTIHEKNKQEAGENAHLIGTKIYKASDNSIIEDAITALLLGKNILLKGPTGSGKTVLAETLSSLFQKPMHSINCSVDLDVEGILGYNTLQTKDGASEVAFVNGPLMKAMKNGHFLYIDEINMAKPETLPLLHGALDYRKMITNPFTQEVVYGDDEYRVIAAINEGYVGTSELNEALKNRFVIIEVPYIQGDTLKELLLAESKLNDVTTIEKFVAFASDLMPLARDGRVSEEAASIRGIIDACDLGVYIPVMRAIERSIIAKLNDETEQMTVRELAESYFFEG
